Assay results as given in article PMC7764042.
One block for each substance: values may come before it.

Experiments:
[1] = biological target: S100P (Homo sapiens) (UniProt P25815); conditions: cited from earlier work
[2] = biological target: IFNAR2 ECD (Homo sapiens) (UniProt P48551); conditions: cited from earlier work
[3] = biological target: Tag7 (Homo sapiens) (UniProt O75594); conditions: cited from earlier work
[4] = biological target: recombinant human interferon alfa-2b (human) (UniProt P01563); assay: SPR; IFN-α immobilised by amine coupling; S100 proteins as analyte; 25 °C; 10 mM HEPES, 150 mM NaCl, 0.01% TWEEN 20, pH 7.4

Substance: IFN-β (from UniProt P01574)
Kd [1]: 0.3 nM
Kd [2]: < 0.1 nM

Substance: S100A4 (from UniProt P26447)
Kd [3]: 1 nM

Kd [4]: > 10000 nM
Substance: recombinant human S100A1 (from UniProt P23297 2-94) (natural protein)

Kd [4]: > 10000 nM
Substance: recombinant human S100A4 (from UniProt P26447 1-101) (natural protein)
